B1: Pistol ribozyme (parent)
chain: GGGUCGUUGUUCCAUAAUCGCGUGGAUAUGGCACGCAAGUUUCUACCGGGCACCGUAAAUGUCCGACUGGAGCCGUUCGGGCGGCUAUAAACAGACCUCAGGCCCGAAGCGUGGCGGCACCUGCCGCCGGUGGUAAAAAAGAUCGGAAGAGCACACGUCU

Variants of: B1
Test: aptazyme ON/OFF ratio, guanine; higher = stronger switching; co-transcriptional cleavage with and without guanine

Variant | aptazyme ON/OFF ratio
GGGUCGUAGGAGCAUAAUCGCGUGGAUAUGGCACGCAAGUUUCUACCGGGCACCGUAAAUGUCCGACUGGAGCCGUUCGGGCGGCUAUAAACAGACCUCAGGCCCGAAGCGUGGCGGCACCUGCCGCCGGUGGUAAAAAAGAUCGGAAGAGCACACGUCU [U8A U10G U11A C12G] | 1.1
GGGUCGUCUGCCUAUAAUCGCGUGGAUAUGGCACGCAAGUUUCUACCGGGCACCGUAAAUGUCCGACUGGAGCCGUUCGGGCGGCUAUAAACAGACCUCAGGCCCGAAGCGUGGCGGCACCUGCCGCCGGUGGUAAAAAAGAUCGGAAGAGCACACGUCU [U8C G9U U10G U11C C13U] | 1.11
GGGUCGUGUAUCCAUAAUCGCGUGGAUAUGGCACGCAAGUUUCUACCGGGCACCGUAAAUGUCCGACUGGAGCCGUUCGGGCGGCUAUAAACAGACCUCAGGCCCGAAGCGUGGCGGCACCUGCCGCCGGUGGUAAAAAAGAUCGGAAGAGCACACGUCU [U8G G9U U10A] | 1.2
GGGUCGCUCUGGCAUAAUCGCGUGGAUAUGGCACGCAAGUUUCUACCGGGCACCGUAAAUGUCCGACUGGAGCCGUUCGGGCGGCUAUAAACAGACCUCAGGCCCGAAGCGUGGCGGCACCUGCCGCCGGUGGUAAAAAAGAUCGGAAGAGCACACGUCU [U7C G9C U11G C12G] | 1.13
GGGUCGCCGCAAGAUAAUCGCGUGGAUAUGGCACGCAAGUUUCUACCGGGCACCGUAAAUGUCCGACUGGAGCCGUUCGGGCGGCUAUAAACAGACCUCAGGCCCGAAGCGUGGCGGCACCUGCCGCCGGUGGUAAAAAAGAUCGGAAGAGCACACGUCU [U7C U8C U10C U11A C12A C13G] | 1.17
GGGUCGUAGCUAGAUAAUCGCGUGGAUAUGGCACGCAAGUUUCUACCGGGCACCGUAAAUGUCCGACUGGAGCCGUUCGGGCGGCUAUAAACAGACCUCAGGCCCGAAGCGUGGCGGCACCUGCCGCCGGUGGUAAAAAAGAUCGGAAGAGCACACGUCU [U8A U10C C12A C13G] | 1.11
GGGUCGCAGUUACAUAAUCGCGUGGAUAUGGCACGCAAGUUUCUACCGGGCACCGUAAAUGUCCGACUGGAGCCGUUCGGGCGGCUAUAAACAGACCUCAGGCCCGAAGCGUGGCGGCACCUGCCGCCGGUGGUAAAAAAGAUCGGAAGAGCACACGUCU [U7C U8A C12A] | 1.3
GGGUCGAUGAGUAAUAAUCGCGUGGAUAUGGCACGCAAGUUUCUACCGGGCACCGUAAAUGUCCGACUGGAGCCGUUCGGGCGGCUAUAAACAGACCUCAGGCCCGAAGCGUGGCGGCACCUGCCGCCGGUGGUAAAAAAGAUCGGAAGAGCACACGUCU [U7A U10A U11G C12U C13A] | 1.11
GGGUCGUGGACCGAUAAUCGCGUGGAUAUGGCACGCAAGUUUCUACCGGGCACCGUAAAUGUCCGACUGGAGCCGUUCGGGCGGCUAUAAACAGACCUCAGGCCCGAAGCGUGGCGGCACCUGCCGCCGGUGGUAAAAAAGAUCGGAAGAGCACACGUCU [U8G U10A U11C C13G] | 1.02
GGGUCGAAGCGGAAUAAUCGCGUGGAUAUGGCACGCAAGUUUCUACCGGGCACCGUAAAUGUCCGACUGGAGCCGUUCGGGCGGCUAUAAACAGACCUCAGGCCCGAAGCGUGGCGGCACCUGCCGCCGGUGGUAAAAAAGAUCGGAAGAGCACACGUCU [U7A U8A U10C U11G C12G C13A] | 1.17
GGGUCGCACGUGGAUAAUCGCGUGGAUAUGGCACGCAAGUUUCUACCGGGCACCGUAAAUGUCCGACUGGAGCCGUUCGGGCGGCUAUAAACAGACCUCAGGCCCGAAGCGUGGCGGCACCUGCCGCCGGUGGUAAAAAAGAUCGGAAGAGCACACGUCU [U7C U8A G9C U10G C12G C13G] | 1.13
GGGUCGCUGCGACAUAAUCGCGUGGAUAUGGCACGCAAGUUUCUACCGGGCACCGUAAAUGUCCGACUGGAGCCGUUCGGGCGGCUAUAAACAGACCUCAGGCCCGAAGCGUGGCGGCACCUGCCGCCGGUGGUAAAAAAGAUCGGAAGAGCACACGUCU [U7C U10C U11G C12A] | 1.35
GGGUCGUUGUCUUAUAAUCGCGUGGAUAUGGCACGCAAGUUUCUACCGGGCACCGUAAAUGUCCGACUGGAGCCGUUCGGGCGGCUAUAAACAGACCUCAGGCCCGAAGCGUGGCGGCACCUGCCGCCGGUGGUAAAAAAGAUCGGAAGAGCACACGUCU [U11C C12U C13U] | 1.52
GGGUCGCUGCAUUAUAAUCGCGUGGAUAUGGCACGCAAGUUUCUACCGGGCACCGUAAAUGUCCGACUGGAGCCGUUCGGGCGGCUAUAAACAGACCUCAGGCCCGAAGCGUGGCGGCACCUGCCGCCGGUGGUAAAAAAGAUCGGAAGAGCACACGUCU [U7C U10C U11A C12U C13U] | 1.22
GGGUCGCGUGACUAUAAUCGCGUGGAUAUGGCACGCAAGUUUCUACCGGGCACCGUAAAUGUCCGACUGGAGCCGUUCGGGCGGCUAUAAACAGACCUCAGGCCCGAAGCGUGGCGGCACCUGCCGCCGGUGGUAAAAAAGAUCGGAAGAGCACACGUCU [U7C U8G G9U U10G U11A C13U] | 1.12
GGGUCGAACGCGAAUAAUCGCGUGGAUAUGGCACGCAAGUUUCUACCGGGCACCGUAAAUGUCCGACUGGAGCCGUUCGGGCGGCUAUAAACAGACCUCAGGCCCGAAGCGUGGCGGCACCUGCCGCCGGUGGUAAAAAAGAUCGGAAGAGCACACGUCU [U7A U8A G9C U10G U11C C12G C13A] | 1.36
GGGUCGUCAGAAGAUAAUCGCGUGGAUAUGGCACGCAAGUUUCUACCGGGCACCGUAAAUGUCCGACUGGAGCCGUUCGGGCGGCUAUAAACAGACCUCAGGCCCGAAGCGUGGCGGCACCUGCCGCCGGUGGUAAAAAAGAUCGGAAGAGCACACGUCU [U8C G9A U10G U11A C12A C13G] | 1.12
GGGUCGCCUUAAUAUAAUCGCGUGGAUAUGGCACGCAAGUUUCUACCGGGCACCGUAAAUGUCCGACUGGAGCCGUUCGGGCGGCUAUAAACAGACCUCAGGCCCGAAGCGUGGCGGCACCUGCCGCCGGUGGUAAAAAAGAUCGGAAGAGCACACGUCU [U7C U8C G9U U11A C12A C13U] | 1.28

From the RNAGym collection of RNA variant scans (doi:10.1021/acssynbio.7b00057)
